Source: article PMC1405823

Test system: BsSSB (6xHis-tagged, as purified) (Bacillus subtilis)
Assay: EMSA
Conditions: 100 mM Tris-HCl pH 7.5, 10 min at 37 °C, 12.5% native PAGE

## 50-base random sequence ssDNA
  binding signal (% probe shifted): 50
